Results from US20030082740A1, “Histidine proline rich glycoprotein (HPRG) as an anti-angiogenic and anti-tumor agent” (priority 2001, published 2003).
Entries after “also recorded” stand apart in the source; their conditions may differ.

How the values were obtained:
HUVEC = test: Endothelial cell tube formation on Matrigel; type: cell-based, human; settings: for Inhibits Angiogenesis (Matrigel® assay): tube formation, concentration not stated
Protocol: Endothelial cells, for example, human umbilical vein endothelial cells (HUVEC) or human microvascular endothelial cells (HMVEC) which can be prepared or obtained commercially, are mixed at a concentration of 2×10^5 cells/mL with fibrinogen (5 mg/mL in phosphate buffered saline (PBS) in a 1:1 (v/v) ratio. Thrombin is added (5 units/ mL final concentration) and the mixture is immediately transferred to a 24-well plate (0.5 mL per well). The fibrin gel is allowed to form and then VEGF and bFGF are added to the wells (each at 5 ng/mL final concentration) along with the test compound. The cells are incubated at 37° C. in 5% CO2 for 4 days at which time the cells in each well are counted and classified as either rounded, elongated with no branches, elongated with one branch, or elongated with 2 or more branches. Results are expressed as the average of 5 different wells for each concentration of compound. Typically, in the presence of angiogenic inhibitors, cells remain either rounded or form undifferentiated tubes (e.g. 0 or 1 branch).
This assay is recognized in the art to be predictive of angiogenic (or anti-angiogenic) efficacy in vivo (Min, H Y et al., Cancer Res. 56: 2428-2433,1996). In an alternate assay, endothelial cell tube formation is observed when endothelial cells are cultured on Matrigel® (Schnaper et al., J. Cell. Physiol. 165:107-118 1995). Endothelial cells (1×10^4 cells/well) are transferred onto Matrigel®-coated 24-well plates, and tube formation is quantitated after 48 hrs. Inhibitors are tested by adding them either at the same time as the endothelial cells or at various time points thereafter. Tube formation can also be stimulated by adding (a) angiogenic growth factors such as bFGF or VEGF, (b) differentiation stimulating agents (e.g.,. PMA) or (c) a combination of these.
HUVEC were seeded onto Matrigel®-coated 96 well plates. Photomicrographs showing results are in FIGS. 4A and 4B.
Endothelial cell tube formation on Matrigel® was stimulated by incubation for 24 hr with FGF-2 (20 ng/ml ), VEGF (20 ng/ml ) and PMA (40 ng/ml ) for 24 hours (FIG. 4A).
Matrigel® tube formation assays in vitro were carried out as described above.

[1] = system: angiogenesis stimulated by FGF-2; test: Matrigel plug model, angiogenesis stimulated by FGF-2; type: in vivo, mice; settings: 0.25 μM in plug; 7 days
Protocol: This assay is performed essentially as described by Passaniti et al. (Lab Invest. 67:519-528 (1992). Ice-cold Matrigel® (e.g., 500 μL) (Collaborative Biomedical Products, Inc., Bedford, Mass.) is mixed with heparin (e.g., 50 μg/ml), FGF-2 (e.g., 400 ng/ml) and the compound to be tested. In some assays, bFGF may be substituted with tumor cells as the angiogenic stimulus. The Matrigel® mixture is injected subcutaneously into 4-8 week-old athymic nude mice at sites near the abdominal midline, preferably 3 injections per mouse. The injected Matrigel® forms a palpable solid gel. Injection sites are chosen such that each animal receives a positive control plug (such as FGF-2+ heparin), a negative control plug (e.g., buffer+heparin) and a plug that includes the compound being tested for its effect on angiogenesis, e.g., (FGF-2+heparin+compound). […] Hemoglobin (Hb) levels are determined using Drabkin's solution (e.g., obtained from Sigma) according to the manufacturers' instructions. […] The amount of fluorescence in the dispersed plug, determined fluorimetrically, also serves as a measure of angiogenesis in the plug. […]
In this study, ice-cold Matrigel® (500 μL) was mixed with heparin (50 μg/ml), FGF-2 (400 ng/ml) and the compound to be tested. […] Hemoglobin levels were determined using Drabkin's solution (from Sigma) according to the manufacturers' instructions.

[2] = system: human umbilical vein endothelial cell (HUVEC); test: bFGF-stimulated HUVEC proliferation (MTS); type: cell-based; settings: 48 hours
Protocol: The ability of the compounds of the invention to inhibit the proliferation of EC's may be determined in a 96-well format. Type I collagen (gelatin) is used to coat the wells of the plate (0.1-1 mg/mL in PBS, 0.1 mL per well for 30 minutes at room temperature). After washing the plate (3× w/PBS), 3-6,000 cells are plated per well and allowed to attach for 4 hrs (37° C./5% CO2) in Endothelial Growth Medium (EGM; Clonetics) or M199 media containing 0.1-2% FBS. The media and any unattached cells are removed at the end of 4 hrs and fresh media containing bFGF (1-10 ng/mL) or VEGF (1-10 ng/mL) is added to each well. Compounds to be tested are added last and the plate is allowed to incubate (37° C./5% CO2) for 24-48 hrs. MTS (Promega) is added to each well and allowed to incubate from 1-4 hrs. The absorbance at 490 nm, which is proportional to the cell number, is then measured to determine the differences in proliferation between control wells and those containing test compounds.
bFGF is used to stimulate human umbilical vein endothelial cell (HUVEC) proliferation. Cells are incubated in the presence of bFGF alone or with added inhibitors of proliferation for 48 hours in a 96 well plate. Proliferation is then measured using the colorimetric reagent, MTS. […]

[3] = system: Lewis lung adenocarcinoma 3LL cells; test: Matrigel plug model, 3LL tumor cell-mediated angiogenesis; type: in vivo, mouse; settings: concentration not given; FIG. 7 legend
Description: In this assay, tumor cells, for example 1-5×10^6 cells of the 3LL Lewis lung carcinoma or the rat prostate cell line MatLyLu, are mixed with Matrigel® and then injected into the flank of a mouse following the protocol described in Sec. B., above. A mass of tumor cells and a powerful angiogenic response can be observed in the plugs after about 5 to 7 days. The anti-tumor and anti-angiogenic action of a compound in an actual tumor environment can be evaluated by including it in the plug. Measurement is then made of tumor weight, Hb levels or fluorescence levels (of a dextran-fluorophore conjugate injected prior to sacrifice). To measure Hb or fluorescence, the plugs are first homogenize with a tissue homogenizer.
The methods used in this study were essentially the same as described in Example VI except that 3LL tumor cells were used to stimulate angiogenesis instead of bFGF. Lewis lung adenocarcinoma 3LL cells (10^6 cells/plug) were mixed with cold Matrigel prior to injection. After seven days, the animals are sacrificed by cervical dislocation and the Matrigel® plugs recovered and processed as above.

caspase-3 = test: Caspase-3 activity in bFGF-stimulated HUVEC; type: cell-based, human; settings: rHPRG at 10 and 100 nM, H/P at similar concentrations, relative to HKa
Protocol: The ability of the compounds of the invention to promote apoptosis of EC's may be determined by measuring activation of caspase-3. Type I collagen (gelatin) is used to coat a P100 plate and 5×10^5 ECs are seeded in EGM containing 10% FBS. After 24 hours (at 37° C. in 5% CO2) the medium is replaced by EGM containing 2% FBS, 10 ng/ml bFGF and the desired test compound. The cells are harvested after 6 hours, cell lysates prepared in 1% Triton and assayed using the EnzChek® Caspase-3 Assay Kit #1 (Molecular Probes) according to the manufactures' instructions.
In order to evaluate whether the observed anti-proliferative activity of HPRG was due to an induction of apoptosis, the activity of caspase-3 (an enzyme that is central to several pro-apoptotic pathways) was measured. HUVEC were grown in 100 mm^2 petri dishes in the presence of bFGF or bFGF+HPRG. Cells were extracted and caspase-3 activity measured using a fluorescent substrate.

[4] = system: CAM of an 8-day old chick embryo; test: Chick chorioallantoic membrane (CAM) angiogenesis assay; type: in vivo; settings: inhibitor at 20 μg/ml with bFGF 30 μg/ml; counted 4 days after implantation
Protocol: This assay is performed essentially as described by Nguyen et al. (Microvascular Res. 47:31-40 (1994)). A mesh containing either angiogenic factors (bFGF) or tumor cells plus inhibitors is placed onto the CAM of an 8-day old chick embryo and the CAM observed for 3-9 days after implantation of the sample. Angiogenesis is quantitated by determining the percentage of squares in the mesh which contain blood vessels.
This assay was performed essentially as described by Nguyen et al. (Microvascular Res. 47:31-40 (1994)). […] Angiogenesis was quantitated by counting the number of microvessels that contacted the filter. In this experiment, microvessel were counted 4 days after implantation of the filter.

In the case of APPHG [ATN246], the “Inhibits Angiogenesis (Matrigel® assay)” value (HUVEC) is reported as “No” and the “Inhibits Angiogenesis (Matrigel® assay)” value (HUVEC; listed as APPHG) is reported as “no effect on neovascularization”.

For “His-His-Pro-His-Gly (HHPHG; printed: His-His-Pro-His-Gly) [ATN230]”, the “Inhibits Angiogenesis (Matrigel® assay)” value (HUVEC) was “Yes” and the “Inhibits Angiogenesis (Matrigel® assay)” value (HUVEC; listed as HHPHG) was “active”.

For “His-Pro-Pro-His-Gly (HPPHG; printed: His-Pro-Pro-His-Gly) [ATN228]”, the “Inhibits Angiogenesis (Matrigel® assay)” value (HUVEC) was “Yes” and the “Inhibits Angiogenesis (Matrigel® assay)” value (HUVEC; listed as HPPHG) was “active”.

B1: HPRG: Histidine proline rich glycoprotein; rabbit HPRG has SEQ ID NO:3; applicants' designation ATN-234 (protein, UniProt P04196 19-525, looked up)
Histidine-rich glycoprotein: VSPTDCSAVEPEAEKALDLINKRRRDGYLFQLLRIADAHLDRVENTTVYYLVLDVQESDCSVLSRKYWNDCEPPDSRRPSEIVIGQCKVIATRHSHESQDLRVIDFNCTTSSVSSALANTKDSPVLIDFFEDTERYRKQANKALEKYKEENDDFASFRVDRIERVARVRGGEGTGYFVDFSVRNCPRHHFPRHPNVFGFCRADLFYDVEALDLESPKNLVINCEVFDPQEHENINGVPPHLGHPFHWGGHERSSTTKPPFKPHGSRDHHHPHKPHEHGPPPPPDERDHSHGPPLPQGPPPLLPMSCSSCQHATFGTNGAQRHSHNNNSSDLHPHKHHSHEQHPHGHHPHAHHPHEHDTHRQHPHGHHPHGHHPHGHHPHGHHPHGHHPHCHDFQDYGPCDPPPHNQGHCCHGHGPPPGHLRRRGPGKGPRPFHCRQIGSVYRLPPLRKGEVLPLPEANFPSFPLPHHKHPLKPDNQPFPQSVSESCPGKFKSGFPQVSMFFTHTFPK
In the case of B1, the “inhibition of angiogenesis (hemoglobin in plug)” value [1] is reported as “completely inhibited angiogenesis; also recorded: inhibit angiogenesis”, the “inhibition of bFGF-stimulated proliferation of HUVEC” value ([2]; 100 nM, FIG. 2A) is reported as “almost complete” and the “inhibition of bFGF-stimulated proliferation of HUVEC” value ([2]; concentration not given, FIGS. 2A, 2B) is reported as “inhibit proliferation”. The “endothelial cell tube formation on Matrigel” value (HUVEC; 500 nM, stimulated with FGF-2, VEGF and PMA for 24 hours) was “almost completely disrupted tube formation; also recorded: inhibition of EC tube formation”, the “inhibition of 3LL tumor-mediated angiogenesis” value [3] was “inhibit 3LL tumor-mediated angiogenesis” and the “induction of caspase-3 activity” value (caspase-3) was “induction of caspase-3”. The “neovessel formation (blood vessel number)” value [4] was “capable of inhibiting neovessel formation; also recorded: inhibit angiogenesis”.
